Laboratory results from article doi:10.1101/2024.02.24.581848.

Target: HigC SecB^TA chaperone of the E. coli NT1F31 HigBAC system (E. coli NT1F31)
Test: ITC

Row | Binder | Kd [µM] | effective KD with 1.5-fold molar excess of the HigA ChAD peptide [µM] | stoichiometry N
1 | GELTAESYDDSYLDDEDADWTATGQGQKSAG [gpV^48-78 peptide] | 0.25 | 6.6 | 0.47
2 | GELTAESYDDSYLAAAAADWTATGQGQKSAG [gpV^48-78 peptide, poly-alanine substitution of the D61DED64 element] | 7 | – | 0.5
